Test [1] has as its target full-length RtcR (S. Typhimurium). As to the kind of experiment: SEC.
Test [2] shares this target. As to the kind of experiment: SEC. This is another data set of the same source.

Where “and” joins values, the source holds several entries; their conditions need not be identical. Identical values can stand only once. Like-named read-outs stand apart in the source and are kept apart here.

For the substance full-length RtcR (natural protein), the stoichiometry N in test [1] is 2 and 6; in test [2], 2 and 6.

For the origin of these results see article PMC10159003.
